# From publication PMC3963918, “CCHCR1 Interacts Specifically with the E2 Protein of Human Papillomavirus Type 16 on a Surface Overlapping BRD4 Binding” (PLoS ONE, 2014)
# B1: unnamed (parent)
# chain 1: METLCQRLNVCQDKILTHYENDSTDLRDHIDYWKHMRLECAIYYKAREMGFKHINHQVVPTLAVSKNKALQAIELQLTLETIYNSQYSNEKWTLQDVSLEVYLTAPTGCIKKHGYTVEVQFDGDICNTMHYTNWTHIYICEEASVTVVEGQVDYYGLYYVHEGIRTYFVQFKDDAEKYSKNKVWEVHAGGQVILCPTSVFSSNEVSSPEIIRQHLANHPAATHTKAVALGTEETQTTIQRPRSEPDTGNPCHTTKLLHRDSVDSAPILTAFNSSHKGRINCNSNTTPIVHLKGDANTLKCLRYRFKKHCTLYTAVSSTWHWTGHNVKHKSAIVTLTYDSEWQRDQFLSQVKIPKTITVSTGFMSI
# chain 2: KAGRAEAEGLRAALAGAEVVRKNLEEGSQRELEEVQRLHQEQLSSLTQAHEEALSSLTSKAEGLEKSLSSLETRRAGEAKELAEAQREAELLRKQLSKTQEDLEAQVTLVENLRKYVGEQVPSEVHSQTWELERQKLLETMQHLQEDRDSLHATAELLQVRVQSLTHILALQEEELTRKVQPSDSLEPEFTRKCQSLLNRWREKVFALMVQLKAQELEHSDSVKQLKGQVASLQEKVTSQSQEQAILQRSLQDKAAEVEVERMGAKGLQLELSRAQEARRRWQQQTASAEEQLRLVVNAVSSSQIWLETTMAKVEGAAAQLPSLNNRLSYAVRKVHTIRGLIARKLALAQLRQESCPLPPPVTDVSLELQQLREERNRLDAELQLSARLIQQEVGRAREQGEAERQQLSKVAQQLEQELQQTQESLASLGLQLEVARQGQQESTEEAASLRQELTQQQELYGQALQEKVAEVETRLREQLSDTERRLNEARREHAKAVVSLRQIQRRAAQEKERSQELRRLQEEARKEEGQRLARRLQELERDKNLMLATLQQEGLLSRYKQQRLLTVLPSLLDKKKSVVSSPRPPECSASAPVAAAVPTRESIKGSLSVLLDDLQDLSEAISKEEAVCQGDNLDRCSSSNPQMSS
# B2: unnamed (parent)
# chain 1: B1 chain 1
# chain 2: MDQNNSLPPYAQGLASPQGAMTPGIPIFSPMMPYGTGLTPQPIQNTNSLSILEEQQRQQQQQQQQQQQQQQQQQQQQQQQQQQQQQQQQQQQQQQAVAAAAVQQSTSQQATQGTSGQAPQLFHSQTLTTAPLPGTTPLYPSPMTPMTPITPATPASESSGIVPQLQNIVSTVNLGCKLDLKTIALRARNAEYNPKRFAAVIMRIREPRTTALIFSSGKMVCTGAKSEEQSRLAARKYARVVQKLGFPAKFLDFKIQNMVGSCDVKFPIRLEGLVLTHQQFSSYEPELFPGLIYRMIKPRIVLLIFVSGKVVLTGAKVRAEIYEAFENIYPILKGFRKTT
# Variants of: B1
# Experiment: GPCA
# Conditions: with partner chain of the complex shown;; read off a plot
row,Variant,ratio to parent
1,chain 1 R27D,0.66
2,chain 1 I73A,0.11
3,chain 1 R37A,0.06
4,chain 1 E39A,0.92
5,chain 1 N181T,0.93

# Variants of: B2
# Experiment: GPCA
# Conditions: with partner chain of the complex shown;; read off a plot
row,Variant,ratio to parent
1,chain 1 R27D,0.91
2,chain 1 N181T,0.95
3,chain 1 I73A,0.97
4,chain 1 R37A,1.1
5,chain 1 E39A,1.2
